What was measured:
adenosine A2A receptor = assay: Antagonist binding to adenosine A2A NPxxY motif alanine mutants (Table 1); parameters: species or system human
Experimental: An alanine scan was carried out in a similar fashion on an adenosine A2A receptor along with the 5HT2C receptor in the presence of the antagonist Mesulergine. Both alanine scans were carried out in order to further stabilize the antagonist conformation. […] The motif in Adenosine A2A is NPFIY (SEQ ID NO: 364) and for the 5HT2C is NPLVY (SEQ ID NO: 363). Therefore mutations in this region of the receptor contain stabilising mutations specific to the agonist conformation and detrimentally effect antagonist binding.
Adenosine A2A receptor was solubilised from transiently transfected mammalian cells about 36 hours post transfection, in 50 mM Tris pH7.4/400 mM NaCl/0.5% DDM and protease inhibitor. Cell lysates were left at 4° C. on a rotator and then cleared by centrifugation at 13,200 rpm for 20 minutes at 4° C. Solubilised receptors were then purified on Ni-NTA beads and eluted with 50 mM histidine. The eluted receptor was used in radioligand binding assay. The Tm was determined by incubating 108 μl of the eluate with Zm241385 radioligand at a final concentration of 100 nM for one hour at 4° C. The six ligand incubations are then incubated at six different temperatures from 20° C. to 50° C., for thirty minutes. Receptor bound and free radioligand were separated using G25 Sephadex spin columns.

A2A receptor [1] = assay: cAMP functional assay (HTRF), NECA stimulation of CHO cells over-expressing A2A receptor; assay type: cell-based, human; settings: intracellular cAMP, CHO cells
Experimental: (§1) In order to stabilise an agonist-bound conformation, a systematic Alanine-scan was performed in order to identify mutations that may stabilise the A2A receptor bound to its full agonist NECA. In this A2A agonist-bound study, L2.46 (L48A) is the most stabilising single mutant. When NECA is bound to the solubilised receptor, removing the L48 side chain (in A2A-L48A) dramatically increases the thermostability of the ligand-receptor complex resulting in an increase of 14° C. over the wild type receptor in the detergent DDM (FIG. 5a). […] We evaluated the signalling property of the A2A receptor by over-expressing the receptor in CHO cells. A2A agonist stimulation triggers the signal transduction through the Gs-trimeric complex and increases the intracellular cAMP level. The increase in intracellular cAMP can be detected by and quantified by using an anti-cAMP Mab antibody competition assay. […] However the signalling efficacy is reduced to 30% (FIG. 6).
This assay takes advantage of Homogeneous Time-Resolved Fluorescence (HTRF) using cAMP labeled with the dye d2 in presence of an anti-cAMP Mab labeled with Cryptate. The method is based on a competitive immunoassay between cAMP produced by cells and the cAMP labeled with the dye d2. CHO cells were grown using Glutamax Ham's F12, 10% FBS in 96-well plates, clear bottom and Black wall (Costar). Cells were seeded at a density of 12500 cells per well, grown overnight, washed with PBS and then transfected with 100 ng of pcDNA-3-A2A(2-316) pre-incubated with 0.3 μL of GeneJuice (Novagen) per well. After 48 hours of receptor expression, the medium was removed, the cells were washed in PBS then stimulated by using different NECA concentrations, in the presence of Rolipram (50 μM) and Adenosine deaminase in a total volume of 50 μL for 30 minutes. Dilution was realised in Hamf's F12/cAMP-d2 conjugate according to the manufacturer protocol, without serum. […] The plate was incubated at room temperature for 1 hour and then read using the Pherastar 96-well time-resolved fluorescence plate reader (Ex 340 nm; Em 665/620 nm).

A2A receptor [2] = assay: Thermostability of A2A receptor in NECA agonist-bound state, solubilised in DDM; assay type: physicochemical, human; settings: NECA agonist-bound state (400 nM), solubilised in DDM
Experimental: as §1
A2AR-(2-316) expression was carried out by using the pRG/III-hs-MBP E. coli expression vector and DH5α cells. Cells were grown at 37° C. in 2 L flasks containing 500 mL of 2×TY medium supplemented with Ampicillin (100 μg/mL) and glucose (0.2% w/v). At OD600≈0.7, IPTG and theophylline were added at final concentrations respectively of 0.5 mM and 100 μM, and the temperature was reduced to 20° C. After 22 to 24 hours, cells were harvested in aliquots of 14 mL, centrifuged for 30 min and stored at −20° C. Both 5HT2C and M4 receptors were transiently expressed in HEK293T cells using GeneJuice transfection reagent used according to the manufacturers guidelines.
An aliquot of E. coli cells expressing wild type or mutant A2AR-(2-316) (14 mL) was thawed on ice and cells were resuspended in 500 μL of buffer A (50 mM Tris HCl mM/pH 7.4; 0.4 M NaCl, 250 μg/mL lysozyme (Sigma), 1 mg/mL DNAse I (Sigma), supplemented with complete EDTA-free Protease inhibitor cocktail (Roche)) and incubated 1 hour at 4° C. Samples were then sonicated 1 min at 4° C. using a cup-horn sonicator. […]

A2A receptor [3] = biological target: T1, A2A receptor (Homo sapiens, UniProt P29274); assay: Thermostability of A2A receptor in ZM241385 antagonist-bound state, solubilised in DDM; assay type: physicochemical; settings: ZM antagonist bound state (100 nM)
T1 construct: A2AR-(2-316) expression was carried out by using the pRG/III-hs-MBP E. coli expression vector; MBP (named only in the vector name); made in house; host or cells: E. coli DH5alpha
Experimental: as §1
A2AR-(2-316) expression was carried out by using the pRG/III-hs-MBP E. coli expression vector and DH5α cells. Cells were grown at 37° C. in 2 L flasks containing 500 mL of 2×TY medium supplemented with Ampicillin (100 μg/mL) and glucose (0.2% w/v). At OD600≈0.7, IPTG and theophylline were added at final concentrations respectively of 0.5 mM and 100 μM, and the temperature was reduced to 20° C. […]

B1: A2A-WT: wild type human adenosine A2A receptor, A2AR-(2-316) (protein, UniProt P29274 2-316, looked up, fragment)
chain: PIMGSSVYITVELAIAVLAILGNVLVCWAVWLNSNLQNVTNYFVVSLAAADIAVGVLAIPFAITISTGFCAACHGCLFIACFVLVLTQSSIFSLLAIAIDRYIAIRIPLRYNGLVTGTRAKGIIAICWVLSFAIGLTPMLGWNNCGQPKEGKNHSQGCGEGQVACLFEDVVPMNYMVYFNFFACVLVPLLLMLGVYLRIFLAARRQLKQMESQPLPGERARSTLQKEVHAAKSLAIIVGLFALCWLPLHIINCFTFFCPDCSHAPLWLMYLAIVLSHTNSVVNPFIYAYRIREFRQTFRKIIRSHVLRQQEPFKA
Adenosine A2A receptor; antagonist binding
  % of Wildtype binding: 100%
Adenosine A2A receptor; antagonist binding, replicate 1
  DPM1: 13513 DPM
Adenosine A2A receptor; antagonist binding, replicate 2
  DPM2: 12949 DPM
Adenosine A2A receptor; average minus background
  Average - BG: 12731
Adenosine A2A receptor; average of DPM1 and DPM2
  Average: 13231
A2A receptor [1]
  pEC50: 7.27±0.19
A2A receptor [2]
  Tm: 28.7±0.5 °C
A2A receptor [3]
  Tm: 33.0±0.7 °C

Reference: patent US8703915B2, “Mutant proteins and methods for producing them” (Heptares Therapeutics Limited, priority 2009, dated 2014)
